Assay: yeast display, Sf9 membrane polyspecificity reagent, FACS + sequencing; frameworks hold sequencing errors
Procedure, shortened: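 Galactose-induced (36–48 hours) yeast carrying a synthetic nanobody display library were exposed to 10% biotinylated, detergent-solubilized Sf9 membrane reagent at 4 °C for 1 hour. FACS followed streptavidin microbead enrichment, using low and high (top ~1%) gates for expression (anti-HA) and reagent binding (streptavidin). Colony PCR, MiSeq 2 × 250 sequencing and CDR-length filtering followed. Labels for polyreactivity reflect the gate of origin.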

Row | Sequence | polyreactivity (PSR sort gate)
1 | QVQLVESGGGLVQAGGSLRLSCAASGITLYKYAMGWYRQAPGKERELVASISRSGGSTYYADSVKGRFTISRDNAKNTVYLQMNSLKPEDTAVYYCNARAKSYRFGYWGQGTQVTVSS | high polyreactivity
2 | QVQLVESGGGLVQAGGSLRLSCAASGIIFFRNAMGWYRQAPGKERELVAAIRWSGGSSYYADSVKGRYTISRDNAKNTVYLQINSLKPEDTAVYYCNAVTVYKHGSWGQGTQVTVSS | high polyreactivity
3 | QVQLVESGGGLVQAGGRLRLSCAASGFILATNAMGWYRQAPGKERELVAAISYSGGSTNYADSVKGRFTISRDNAKNTVYLQMNSLKPEDTAVYYCNAGGTVIWAWYGPVYSWGQGTQVTVSS | low polyreactivity
4 | QVQLVESGGGLVQAGGSLRLSCAACGLTITFYAMGWYRQAPGKERELVAAISRSGGSTYYADSVKGRFTISRDNAKNTVYLQMNSLKPEVTAVYYCAVVGGYYEFDYEGDYWGQGTQVTVSS | low polyreactivity
5 | QVQLVESGGGLVQAGGSLRLSSAASGRTFRHYALGWSRQAPGKERELVAVISWRGTGTYYADSVKGRFTISRDNAKNTVYLQMTSLKPEDTSVYYCATVWGLGYRMNYWGQGTQVTVSS | high polyreactivity
6 | QVQLEESGGGLVQAGGSLRLSCAASGFISFAYAMGWYIQAPGKERELVAGISRSGDSTYYADSVKGRFTISRDNAKNTVYLQMNSLKPEDTAVYYCAARQVDWFDYTTAQVGSYKVNYWGQGTQVTVSS | low polyreactivity
7 | QVQLVESAGGLVQEGGSLRLSCAASGSTFPYYAMGWYRQAPGKERELVAAISQNGGSTYYADSVKGRFTISRDNAMNTVYLQMNRLKPEDTAVYYCNADGVGGEYRLSGYAYWGQGTQVTVSS | low polyreactivity
8 | QLQLVESGGGLVQAGGSLRLSCASSGSNFQPYAMGWYRQAPGIERELVAAISRGGTTYYADSVKGRFTISRDNAKTTVYLQMNSLKPEDTAVYYCAADSYKPDGYRLRNDYWGQGTQVIVSS | high polyreactivity
9 | QVQLVESGGGLVQAGGSLRLSYAASGSTFFFNALGWYRQAPGKERELVATISRDGSTNYADSVKGRFTISRDNAKNTVYLQINSLKPEDTAVYYCAAGWGWPYHQYDYWGQGTQVTVSS | low polyreactivity
10 | QVQLVESGGGLVQAGGSLRLSCAASGRTFPGYGMGWYRQAPGKERELVAVITSNGGITYYADSVKGRFTISRDNAKNTVYLQMNSLKPEDTAVYYCAAYEIYYEFDSWGQGTQVTVSS | low polyreactivity
11 | QVQLVESGGGLVQAGGSLRLSCAASGRIFDIYAMGWYRQAPGKERELVASISWSGDSTYYADSVKGRFTISRDNAKNTVYLEMNSLKPEDTAVYYCAAEGEDTEGYDYDYWGQGTQVTVSS | low polyreactivity
12 | QVQLVESGGGLVQAGGSLRLSCAASGFTFYYAMGWYRQAPGKERELVAAISSSGARTYYADSVKGRFTISRDNAKYTVYLQMNSLKPEDTAVYYCAARRYYKFYYWGQGTQVTVSS | high polyreactivity
13 | QVQLVESGGGLVQAGRSLRLSCAASGSTFPVNTMGWYRQAPGKERELVAAITKNGANTYYADSVKGRFTISRDNAKNTVYLQMNSLKPEYTAVYYCAALYVYGKSYSRWLVELDYWGQGTQVTVSS | low polyreactivity
14 | QVQLVESGGGLVQAGGSLRLSCAASGSTFGVNAMGWYRQAPGKERELVAAISSSGSSTYADSVKGRFTISRDNAKNTVYLQMNSLKPEDTAVYYCNKTTLLTVEYDYWGQGTQVTVSS | low polyreactivity
15 | QVQLVESGGGLVQAGGSLRLSCAASGIIFVSYAMGWYRQAPGKERELVADITSGGRTYYADSVKGRFTISRDNAKNTVYLQMNSLKPEDTAGYYCAATYSYKGRWVWVYYWGQGTQVTVSS | high polyreactivity
16 | QVQLVESGGGLVQAGGSLRLSCAASGSIFGYYAMGWYRQAPGKERELVAAIRGSSGSTYYADSVKGRFTISRDNAKNTVYLQMNSLKPEDTAVYYCAADYRTYVYVYGFRHFDYWGQGTQVTVSS | low polyreactivity

Row | Sequence | polyreactivity (PSR sort gate)
17 | QVQLVESGGGLVQAGGSLRLSCAASGSIFSYYAMGWYRQAPGKERELVSANTSGDGTNYADSVKGRFTISRDNAKNTVYLQMNILKPDDTAVYYCAADAVDSYWREDYWGQGTQVTVSS | low polyreactivity
18 | QVQLVESGGGLVQAGGSLRLSCAASGFTFRYYAMGWYRQAPGKERELVAAISARGTSTYYADSVKGRFTISRDNAKITVYLQMNSLKPEDTAVYYCAARYGLYPARGYDYWGQGTQVSVSS | high polyreactivity
19 | QDQLVESGGGLVQAGGSLRLTCAASGGIFWSYAMGWYRQAPGKERDLVAAINWNAGSTYYADSVKGRFTISRDNAKNTVYLQMNSLKPEDTAVYYCAKVQWHLYDWGQGTQVTVSS | high polyreactivity
20 | QEQLQESGGGLVQAGGSLRLSCAASGYISSWYPMGWYRQAPGKEREFVATIAPGATTYYADSVKGRFTISRDYAKNTVYLQMNSLTPEDTAVYYCAAGPENNDFYSYWGQGTQVTVSS | low polyreactivity
21 | QVQLVESGGGLVQAGGSLRLSCAASGSIIVRYAMGWDRQAPGKERELVAAISKSGGSTHYADSVKGRFTISRDNAKNTVYLQMNSLKPEDTAVYYCAAVYYYRFTTYYYWGQGTQVTVSS | high polyreactivity
22 | QVQLVESGGGLVQAGGSLSLSCAASGRITCGYAMGWYRQAPGKERELVAVINFNGGRTYYADSVKGRFTISRDNAKNTVYLQMNSLKPEDTAVYYCAADSGYEYDYWGQGTQVTVSS | low polyreactivity
23 | QVQLVESGGGLVQAGGSLRLSCAASGYTFEVYAMGWYRQAPGKERELVADITTRTGNTYYADSVKGRFTISRDNAKNTVYLQMNSLKPEDTAVYYCAADLQRYWWWYEYWGQGTQVTVSS | high polyreactivity
24 | QVQLVESGGGLVQAGGSLRLSCAASGRIFLRYAMGWYRQAPGKERELVAAIDFSAGSTYYADSVKGRFTISRDNAKNTVYLQMNSLKPEDTAVYYCATRLGVLYDYWGQGTQVTVSS | low polyreactivity
25 | QVQLVESGGGLVQAGGSLRLSCAASGFISPSYDMGWYRQAPGKEWELVAAIRSSDGSTYYADSVKGRFTISRDNAKNTVYLQMNSLKPEDTAVYYCNKGVVLTLYVGMDYWGQGTQVTVSS | low polyreactivity
26 | QVQLVESGGGLVQAGGSLRLSCAASGRIFNSYAMGWYRQAPGKERELVAAINWTDVSTYYADSVKGRFTISRDNAKNTVYLQMNSLKPEDTAVYYFAAVRWGSYTLSDDYWGQGTQVTVSS | low polyreactivity
27 | QVQLVESGGGVVQAGGSLRLSCAASGRIISYNAMGWYRQAPGKERELVAAISWGGGSTYYADSVKGRFTISRDNAKNTVYLQMNSLKPEDTAVSYCAKGWYRIKRNDYWGQGTQVTVSS | low polyreactivity
28 | QVQLVESGGGLVQAGGSLRLICAASGGTFYPYTMGGYRQAPGKERELVAAISRRSGRTYYADSVKGRFTISRDNAKNTVYLQMNSLKPEDTAVYYCNADGYTRAFDYWGQGTQVTVSS | high polyreactivity
29 | QVHLVESVGRLVQEGGSLRLICAASAFNIYTYAMGWSRQAPGKEREMVAAISKSGGSTYSADSVKGRFTISRDNAKNTVYVQMNSLKPVDTAVYYCAVSDARHLGSGRYYWCQGTQVTVSS | low polyreactivity
30 | QVQLVESGGGLVQAGGSLRLSCAASGSTFRQYAMGWYRQAPGKERELVAAISSSGSTTYYADSVKGRFTISRDNAKNTVYLQMNSLKPEDTAVYYCAAEYTFHYDYWGQGTQVTVSS | low polyreactivity
31 | QVQLVESGGGLVQAGGSLRLSCAASGRIFGYYTMGWYRQAPGKEWEVVAGISSGGSTNYADSVKGRFTISRDNAKNTVYLQMNSLKPEDTAVYDCAAAYPHFGGYRYDYWGQGTQVTVSS | high polyreactivity
32 | QVQLQESGGGLVQAGGSLCLSCAASGTIIFDGDMGWYRQAPGKEREFVAAINPGGSAYYADSVKGRLPLAAITHTVYLQMNCLKPEDTAVYYCAAKLFDVYGYYYWGQGTHVTVSS | low polyreactivity

Source: the nanobody polyreactivity screen of Harvey et al. (2022)
